# Results: patent publication US20070207967
# Key:
# [1] = system: PPC peptide, soluble recombinant 18-mer ADGACGYGRFSPPCGAAG
# [2] = target: recombinant soluble human uPAR (suPAR) (UniProt Q03405)
# Chain of recombinant soluble human uPAR (suPAR) (Q03405 whole entry, looked up, tested part not stated): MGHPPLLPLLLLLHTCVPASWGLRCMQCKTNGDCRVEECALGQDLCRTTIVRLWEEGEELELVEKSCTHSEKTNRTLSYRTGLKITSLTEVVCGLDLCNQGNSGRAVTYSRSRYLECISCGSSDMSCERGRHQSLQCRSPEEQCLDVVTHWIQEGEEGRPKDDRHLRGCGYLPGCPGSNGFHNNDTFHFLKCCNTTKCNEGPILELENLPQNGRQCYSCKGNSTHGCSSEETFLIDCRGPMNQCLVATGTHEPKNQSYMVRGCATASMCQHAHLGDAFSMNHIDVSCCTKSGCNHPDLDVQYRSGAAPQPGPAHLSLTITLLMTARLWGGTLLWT
# Chain of trypsin-activated MMP-9 (chain, as listed by the source): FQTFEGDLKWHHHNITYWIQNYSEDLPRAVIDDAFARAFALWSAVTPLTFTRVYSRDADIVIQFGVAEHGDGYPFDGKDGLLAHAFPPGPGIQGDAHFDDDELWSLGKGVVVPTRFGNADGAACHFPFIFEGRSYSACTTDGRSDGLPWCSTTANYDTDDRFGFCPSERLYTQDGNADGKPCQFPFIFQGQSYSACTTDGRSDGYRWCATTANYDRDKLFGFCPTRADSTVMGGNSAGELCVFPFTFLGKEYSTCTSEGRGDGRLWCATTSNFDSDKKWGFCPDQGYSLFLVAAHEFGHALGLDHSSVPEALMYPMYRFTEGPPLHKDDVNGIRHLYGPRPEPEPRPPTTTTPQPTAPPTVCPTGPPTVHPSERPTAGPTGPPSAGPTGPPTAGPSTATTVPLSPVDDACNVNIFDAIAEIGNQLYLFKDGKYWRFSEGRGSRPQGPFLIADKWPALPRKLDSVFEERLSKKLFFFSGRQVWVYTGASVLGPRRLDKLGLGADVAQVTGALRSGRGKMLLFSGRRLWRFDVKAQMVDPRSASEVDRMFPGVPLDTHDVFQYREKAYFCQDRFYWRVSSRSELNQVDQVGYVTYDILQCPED
substance,measurement,setting,value
trypsin-activated MMP-9,"gelatin degradation assay (enzymatic activity, biotinylated gelatin substrate)",[1],PPC inhibited both MMP-9 and MMP-2 activity
same,cleavage of soluble uPAR in vitro (western blot),[2],MMP-9 cleaved the domain 1 (D1) from uPAR similarly as chymotrypsin does
